Measured values as given in paper PMC10589721 (Proceedings of the National Academy of Sciences of the …, 2023).
Read-outs that look alike come from different tables or passages of the source. No end group written: not given here. *: point of attachment. Biotin = O=C1N[C@H]2[C@H](CS[C@H]2CCCCC(=O)*)N1; Ahx = NCCCCCC(=O)O

Assays:
full-length human OGT = molecular target: T1, full-length human OGT (Homo sapiens, UniProt O15294); assay: OGT inhibition assay; assay type: biochemical
T1 sequence (O15294 1-1046): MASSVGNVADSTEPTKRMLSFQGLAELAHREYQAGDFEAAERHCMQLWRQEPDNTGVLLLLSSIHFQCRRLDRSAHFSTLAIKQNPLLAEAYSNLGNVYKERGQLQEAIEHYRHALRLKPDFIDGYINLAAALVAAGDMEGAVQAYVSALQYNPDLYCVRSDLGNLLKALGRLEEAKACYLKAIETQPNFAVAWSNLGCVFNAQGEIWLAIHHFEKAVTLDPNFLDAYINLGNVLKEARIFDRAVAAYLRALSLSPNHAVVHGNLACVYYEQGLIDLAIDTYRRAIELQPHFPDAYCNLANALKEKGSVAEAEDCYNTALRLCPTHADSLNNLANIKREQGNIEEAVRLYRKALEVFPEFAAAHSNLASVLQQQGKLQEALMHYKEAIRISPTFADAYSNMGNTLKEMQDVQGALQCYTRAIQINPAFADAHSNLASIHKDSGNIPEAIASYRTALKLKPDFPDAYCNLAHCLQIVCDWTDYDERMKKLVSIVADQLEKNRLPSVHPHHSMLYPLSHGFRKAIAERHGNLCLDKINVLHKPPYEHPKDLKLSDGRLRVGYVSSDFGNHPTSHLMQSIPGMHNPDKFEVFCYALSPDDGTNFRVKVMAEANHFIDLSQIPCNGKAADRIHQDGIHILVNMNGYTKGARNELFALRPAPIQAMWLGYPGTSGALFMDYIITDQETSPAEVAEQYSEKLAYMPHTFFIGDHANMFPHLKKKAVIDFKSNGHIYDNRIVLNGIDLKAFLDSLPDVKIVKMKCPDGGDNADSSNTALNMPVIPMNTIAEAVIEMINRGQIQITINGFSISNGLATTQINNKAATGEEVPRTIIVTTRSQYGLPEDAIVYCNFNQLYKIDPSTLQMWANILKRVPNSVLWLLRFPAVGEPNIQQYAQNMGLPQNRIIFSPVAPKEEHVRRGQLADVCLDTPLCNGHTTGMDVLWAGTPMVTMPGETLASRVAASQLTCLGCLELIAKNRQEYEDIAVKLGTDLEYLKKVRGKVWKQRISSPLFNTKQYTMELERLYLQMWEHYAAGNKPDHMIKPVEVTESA

[1] = molecular target: T2, OGT4.5 (crystallizable construct of O-GlcNAc transferase: catalytic region appended to 4.5 TPRs) (human, UniProt O15294 323-1041); assay: BLI
T2 sequence: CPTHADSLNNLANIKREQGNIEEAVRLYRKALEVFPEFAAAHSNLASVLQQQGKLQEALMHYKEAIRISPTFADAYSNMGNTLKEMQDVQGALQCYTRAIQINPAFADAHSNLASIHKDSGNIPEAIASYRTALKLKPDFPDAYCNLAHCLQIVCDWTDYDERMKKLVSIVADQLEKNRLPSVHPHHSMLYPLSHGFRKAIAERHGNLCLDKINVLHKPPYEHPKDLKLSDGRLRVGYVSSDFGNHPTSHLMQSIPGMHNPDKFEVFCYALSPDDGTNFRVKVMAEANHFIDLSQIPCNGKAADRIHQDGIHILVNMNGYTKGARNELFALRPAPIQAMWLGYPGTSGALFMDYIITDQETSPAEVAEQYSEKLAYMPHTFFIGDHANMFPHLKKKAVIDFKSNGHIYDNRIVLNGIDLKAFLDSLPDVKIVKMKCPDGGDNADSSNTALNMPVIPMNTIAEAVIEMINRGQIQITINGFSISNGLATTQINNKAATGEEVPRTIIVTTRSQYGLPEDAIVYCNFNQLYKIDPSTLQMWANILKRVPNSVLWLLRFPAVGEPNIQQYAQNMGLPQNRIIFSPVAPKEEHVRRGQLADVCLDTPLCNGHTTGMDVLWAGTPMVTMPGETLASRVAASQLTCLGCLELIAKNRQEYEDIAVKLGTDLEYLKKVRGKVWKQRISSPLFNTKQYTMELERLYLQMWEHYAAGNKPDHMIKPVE

[2] = molecular target: T2, OGT4.5 (crystallizable construct of …); assay: crystal structure
[3] = molecular target: T3, O-GlcNAc transferase (OGT), as used in the fluorescence activity assay (human, UniProt O15294 1-1046); assay: enzyme inhibition kinetics
T3 sequence (looked up): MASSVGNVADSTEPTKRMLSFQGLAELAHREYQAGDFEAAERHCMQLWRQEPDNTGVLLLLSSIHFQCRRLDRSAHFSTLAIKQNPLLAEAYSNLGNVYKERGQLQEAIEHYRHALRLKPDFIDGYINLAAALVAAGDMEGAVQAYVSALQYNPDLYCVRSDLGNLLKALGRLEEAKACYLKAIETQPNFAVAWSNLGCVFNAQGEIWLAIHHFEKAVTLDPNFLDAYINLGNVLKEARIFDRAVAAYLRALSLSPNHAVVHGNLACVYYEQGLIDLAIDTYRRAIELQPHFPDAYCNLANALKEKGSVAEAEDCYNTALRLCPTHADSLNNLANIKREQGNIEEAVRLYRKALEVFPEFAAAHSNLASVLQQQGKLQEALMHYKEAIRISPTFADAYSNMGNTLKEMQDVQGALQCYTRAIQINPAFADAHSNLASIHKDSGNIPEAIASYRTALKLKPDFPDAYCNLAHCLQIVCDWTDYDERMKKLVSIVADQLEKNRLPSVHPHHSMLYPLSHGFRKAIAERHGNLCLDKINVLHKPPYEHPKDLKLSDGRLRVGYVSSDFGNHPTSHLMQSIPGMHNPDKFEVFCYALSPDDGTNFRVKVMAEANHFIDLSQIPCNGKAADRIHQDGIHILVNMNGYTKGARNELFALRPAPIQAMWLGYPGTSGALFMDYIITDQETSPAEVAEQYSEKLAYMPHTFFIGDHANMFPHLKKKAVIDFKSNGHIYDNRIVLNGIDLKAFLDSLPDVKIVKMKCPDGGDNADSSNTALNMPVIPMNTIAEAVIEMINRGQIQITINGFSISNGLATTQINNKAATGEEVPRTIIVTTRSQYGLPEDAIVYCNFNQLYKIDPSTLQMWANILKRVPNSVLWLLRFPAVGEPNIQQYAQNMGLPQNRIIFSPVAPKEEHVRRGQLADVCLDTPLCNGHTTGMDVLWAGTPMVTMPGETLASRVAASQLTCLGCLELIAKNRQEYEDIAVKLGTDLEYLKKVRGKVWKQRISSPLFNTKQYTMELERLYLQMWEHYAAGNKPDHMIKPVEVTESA

[4] = molecular target: T3, O-GlcNAc transferase (OGT), as used in …; assay: enzyme inhibition kinetics; remark: listed apart in the source
[5] = molecular target: T3, O-GlcNAc transferase (OGT), as used in …; assay: enzyme inhibition kinetics; remark: listed apart in the source

DDSDLYSPRYSFSED [repeat 2 of SORB1]
inhibition of OGT (in words) (full-length human OGT): none of these four peptides inhibited OGT

PEENPYFPTYKFPEL [repeat 1 of SORB1]
inhibition of OGT (in words) (full-length human OGT): none of these four peptides inhibited OGT

PTSKAYSPRYSISDR [SOS1]
inhibition of OGT (in words) (full-length human OGT): none of these four peptides inhibited OGT

RGLGEFTPLYPMLFG [SCLY]
inhibition of OGT (in words) (full-length human OGT): none of these four peptides inhibited OGT

B1: biotinylated peptide P11 (Biotin-Ahx-GDFPVMFMPKYSIIF) (peptide)
peptide: {Biotin-Ahx}-GDFPVMFMPKYSIIF
Kd [1]: 0.47 ± 0.16 µM

B2: truncated P11 peptide (tP11) (peptide)
peptide: FMPKYSI
binding result [2]: binds

B3: peptide P11 (peptide)
peptide: GDFPVMFMPKYSIIF
Ki [3]: 3.8 ± 0.4 µM
Ki [4]: 2.7 ± 0.3 µM
Ki [5]: 4000 ± 900 µM
